Data from article PMC4596688, “Structural determinants of nuclear export signal orientation in binding to exportin CRM1” (eLife, 2015).

Target: Full-length human CRM1 (HsCRM1), O14980
Test: GST pull-down, SDS/PAGE band intensity
Settings: chain shown with the change; excess ScRanGTP; triplicate experiments; parent: est. 100; read off a plot

Sequence of Full-length human CRM1 (HsCRM1), O14980 (O14980 whole entry): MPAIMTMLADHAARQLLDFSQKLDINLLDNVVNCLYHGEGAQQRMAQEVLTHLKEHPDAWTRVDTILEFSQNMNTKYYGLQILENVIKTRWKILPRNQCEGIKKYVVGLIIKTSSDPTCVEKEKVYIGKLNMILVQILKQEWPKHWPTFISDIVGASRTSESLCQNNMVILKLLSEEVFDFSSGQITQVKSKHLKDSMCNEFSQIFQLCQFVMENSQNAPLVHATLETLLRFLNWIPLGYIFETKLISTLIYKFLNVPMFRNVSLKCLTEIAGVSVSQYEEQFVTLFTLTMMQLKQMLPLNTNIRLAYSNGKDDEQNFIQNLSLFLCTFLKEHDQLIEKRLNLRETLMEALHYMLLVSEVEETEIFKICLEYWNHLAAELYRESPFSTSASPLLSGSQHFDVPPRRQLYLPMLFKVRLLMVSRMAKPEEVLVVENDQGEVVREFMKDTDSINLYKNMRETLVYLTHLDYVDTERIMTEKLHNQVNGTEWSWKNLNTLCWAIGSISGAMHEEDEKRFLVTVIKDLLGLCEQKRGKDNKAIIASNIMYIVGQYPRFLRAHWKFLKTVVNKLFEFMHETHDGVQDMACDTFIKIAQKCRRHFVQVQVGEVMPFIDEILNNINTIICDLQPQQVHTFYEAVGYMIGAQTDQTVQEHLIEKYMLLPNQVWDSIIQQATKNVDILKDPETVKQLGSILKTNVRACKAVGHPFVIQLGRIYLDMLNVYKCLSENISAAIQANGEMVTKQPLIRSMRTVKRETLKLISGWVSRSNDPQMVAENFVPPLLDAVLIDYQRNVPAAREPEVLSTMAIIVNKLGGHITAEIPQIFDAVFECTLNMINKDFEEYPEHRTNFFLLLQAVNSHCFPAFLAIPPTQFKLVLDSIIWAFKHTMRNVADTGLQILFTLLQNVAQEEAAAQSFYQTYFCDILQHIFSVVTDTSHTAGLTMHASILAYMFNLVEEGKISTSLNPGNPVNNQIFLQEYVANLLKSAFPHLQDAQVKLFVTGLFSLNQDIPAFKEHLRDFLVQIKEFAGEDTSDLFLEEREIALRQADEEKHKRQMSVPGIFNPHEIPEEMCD

| Binder | percent of parent |
| --- | --- |
| GKIEELAQNFETMELSR [GST-hRio2NES-R F13L] | 130% |
| GKIEELAQNFETMEISR [GST-hRio2NES-R F13I] | 150% |
| GKIEELAQNFETMEVSR [GST-hRio2NES-R F13V] | 140% |
| GKIEELAQNFETLEFSR [GST-hRio2NES-R M11L] | 105% |
